Target: CaV1.2 truncated at aa 1820, fused to YFP (CaV1.2^Δ1820-YFP) (UniProt P15381)

Distal C-terminal domain of CaV1.2 fused to Renilla luciferase (DCtermD-RLuc) (domain or fragment)
CDI fraction of CaV1.2^Δ1820 at 0 mV, without versus with DCtermD overexpressed: 0.03
